In patent US20250154198A1, “PEPTIDE INHIBITORS OF INTERLEUKIN-23 RECEPTOR” (Zealand Pharma A/S, priority 2021, published 2025):
*1 amine or outer side, *2 acyl side, *3 side chain or, on linkers, in order; H or OH if unused. Bridges are numbered along the chain shown (N, C = ends). Where no end group is shown, it is not given here. [ ]: non-standard residue; d: D form. 1,3‑dibromopropan‑2‑one = linker (CAS 816-39-7) joining two Cys as 1,3-dithio-propan-2-one bridge -SCH2C(=O)CH2S-; 4‑(2-Aminoethyl)benzoyl = O=C(c1ccc(CCN[*:1])cc1)[*:2]; Trp(7-Me) = Cc1cccc2c(C[C@H](N)C(=O)O)c[nH]c12; Bip = N[C@@H](Cc1ccc(-c2ccccc2)cc1)C(=O)O; 2Nal = N[C@@H](Cc1ccc2ccccc2c1)C(=O)O; AEF = NCCOc1ccc(C[C@H](N)C(=O)O)cc1; αMeR = C[C@](N)(CCCNC(=N)N)C(=O)O; 4Pal = N[C@@H](Cc1ccncc1)C(=O)O; αMeL = CC(C)C[C@](C)(N)C(=O)O; CH2COCH2 = O=C(C[*:1])C[*:2]; 3Amb = NCc1cccc(C(=O)O)c1; Orn = NCCC[C@H](N)C(=O)O; Dab = NCC[C@H](N)C(=O)O

Target: T1, human IL-23R endogenously expressed on DB cells (CRL-2289) (human, UniProt Q5VWK5 24-629)
T1 sequence (looked up): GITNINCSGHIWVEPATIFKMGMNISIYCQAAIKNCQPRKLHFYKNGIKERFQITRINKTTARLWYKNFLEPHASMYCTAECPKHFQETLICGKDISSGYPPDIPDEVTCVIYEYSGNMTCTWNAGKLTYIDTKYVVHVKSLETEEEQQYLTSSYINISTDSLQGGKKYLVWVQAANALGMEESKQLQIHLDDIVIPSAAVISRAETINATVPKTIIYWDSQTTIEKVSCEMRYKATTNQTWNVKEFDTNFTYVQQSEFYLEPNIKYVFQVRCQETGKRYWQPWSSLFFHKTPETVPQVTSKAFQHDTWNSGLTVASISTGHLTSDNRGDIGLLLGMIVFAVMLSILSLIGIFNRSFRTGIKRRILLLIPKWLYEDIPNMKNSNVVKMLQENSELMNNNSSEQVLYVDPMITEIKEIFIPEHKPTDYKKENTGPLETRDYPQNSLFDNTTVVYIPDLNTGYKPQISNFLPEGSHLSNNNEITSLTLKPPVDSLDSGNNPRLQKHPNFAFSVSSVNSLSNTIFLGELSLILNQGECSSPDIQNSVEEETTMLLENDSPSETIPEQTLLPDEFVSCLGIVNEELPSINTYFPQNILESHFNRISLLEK
Test: cell-based or functional assay

Binder: Ac-DESCAQCWWLKR-NH2 (lactam 2-11; linker 4-7 via 1,3‑dibromopropan‑2‑one) [Compound 13]
- IC50 (pSTAT3): > 1 µM

Binder: Ac-DESCWQCAWLKR-NH2 (lactam 2-11; linker 4-7 via 1,3‑dibromopropan‑2‑one) [Compound 14]
- IC50 (pSTAT3): > 1 µM

Binder: Ac-DESCWQCWALKR-NH2 (lactam 2-11; linker 4-7 via 1,3‑dibromopropan‑2‑one) [Compound 15]
- IC50 (pSTAT3): > 1 µM

B1: Compound 26 (peptide)
peptide: Ac-KSC[Bip]QCW[2Nal]LER-NH2
modifications: lactam 1-10; linker 3-6 via CH2COCH2
SMILES: CC(=O)N[C@H]1CCCCNC(=O)CC[C@@H](C(=O)N[C@@H](CCCNC(=N)N)C(N)=O)NC(=O)[C@H](CC(C)C)NC(=O)[C@H](Cc2ccc3ccccc3c2)NC(=O)[C@H](Cc2c[nH]c3ccccc23)NC(=O)[C@@H]2CSCC(=O)CSC[C@H](NC(=O)[C@H](CO)NC1=O)C(=O)N[C@@H](Cc1ccc(-c3ccccc3)cc1)C(=O)N[C@@H](CCC(N)=O)C(=O)N2
- IC50 (pSTAT3): > 1 µM

Binder: H-LCSCWQCWWLCR-NH2 (linker 2-11, 4-7 via CH2COCH2) [Compound 2]
- IC50 (pSTAT3): 755 nM

B2: Compound 36 (peptide)
peptide: XSCWQCWXLER
HELM: PEPTIDE1{[bAla].S.C.W.Q.C.W.[O=C([C@H](Cc1ccc2ccccc2c1)N[*:1])[*:2]].L.E.R.[am]}|CHEM1{[O=C(C[*:1])C[*:2]]}$PEPTIDE1,PEPTIDE1,1:R1-10:R3|PEPTIDE1,CHEM1,3:R3-1:R1|PEPTIDE1,CHEM1,6:R3-1:R2$$$V2.0
SMILES: CC(C)C[C@@H]1NC(=O)[C@H](Cc2ccc3ccccc3c2)NC(=O)[C@H](Cc2c[nH]c3ccccc23)NC(=O)[C@@H]2CSCC(=O)CSC[C@H](NC(=O)[C@H](CO)NC(=O)CCNC(=O)CC[C@@H](C(=O)N[C@@H](CCCNC(=N)N)C(N)=O)NC1=O)C(=O)N[C@@H](Cc1c[nH]c3ccccc13)C(=O)N[C@@H](CCC(N)=O)C(=O)N2
- IC50 (pSTAT3): > 1 µM

B3: Compound 38 (peptide)
peptide: [3Amb]SCWQC[AEF][2Nal][αMeL]ER-NH2
modifications: lactam N-10; linker 3-6 via CH2COCH2
SMILES: CC(C)C[C@]1(C)NC(=O)[C@H](Cc2ccc3ccccc3c2)NC(=O)[C@H](Cc2ccc(OCCN)cc2)NC(=O)[C@@H]2CSCC(=O)CSC[C@H](NC(=O)[C@H](CO)NC(=O)c3cccc(c3)CNC(=O)CC[C@@H](C(=O)N[C@@H](CCCNC(=N)N)C(N)=O)NC1=O)C(=O)N[C@@H](Cc1c[nH]c3ccccc13)C(=O)N[C@@H](CCC(N)=O)C(=O)N2
- IC50 (pSTAT3): 19.3 nM

B4: Compound 39 (peptide)
peptide: [3Amb]SCWQC[AEF][2Nal]LER-NH2
modifications: lactam N-10; linker 3-6 via CH2COCH2
SMILES: CC(C)C[C@@H]1NC(=O)[C@H](Cc2ccc3ccccc3c2)NC(=O)[C@H](Cc2ccc(OCCN)cc2)NC(=O)[C@@H]2CSCC(=O)CSC[C@H](NC(=O)[C@H](CO)NC(=O)c3cccc(c3)CNC(=O)CC[C@@H](C(=O)N[C@@H](CCCNC(=N)N)C(N)=O)NC1=O)C(=O)N[C@@H](Cc1c[nH]c3ccccc13)C(=O)N[C@@H](CCC(N)=O)C(=O)N2
- IC50 (pSTAT3): 19.6 nM

B5: Compound 42 (peptide)
peptide: [3Amb]SCWQC[AEF][2Nal][αMeL]E[αMeR]-NH2
modifications: lactam N-10; linker 3-6 via CH2COCH2
SMILES: CC(C)C[C@]1(C)NC(=O)[C@H](Cc2ccc3ccccc3c2)NC(=O)[C@H](Cc2ccc(OCCN)cc2)NC(=O)[C@@H]2CSCC(=O)CSC[C@H](NC(=O)[C@H](CO)NC(=O)c3cccc(c3)CNC(=O)CC[C@@H](C(=O)N[C@@](C)(CCCNC(=N)N)C(N)=O)NC1=O)C(=O)N[C@@H](Cc1c[nH]c3ccccc13)C(=O)N[C@@H](CCC(N)=O)C(=O)N2
- IC50 (pSTAT3): 24.7 nM

B6: Compound 44 (peptide)
peptide: [3Amb]SCWQC[AEF][2Nal][αMeL]ES-NH2
modifications: lactam N-10; linker 3-6 via CH2COCH2
SMILES: CC(C)C[C@]1(C)NC(=O)[C@H](Cc2ccc3ccccc3c2)NC(=O)[C@H](Cc2ccc(OCCN)cc2)NC(=O)[C@@H]2CSCC(=O)CSC[C@H](NC(=O)[C@H](CO)NC(=O)c3cccc(c3)CNC(=O)CC[C@@H](C(=O)N[C@@H](CO)C(N)=O)NC1=O)C(=O)N[C@@H](Cc1c[nH]c3ccccc13)C(=O)N[C@@H](CCC(N)=O)C(=O)N2
- IC50 (pSTAT3): 82.3 nM

Binder: [(4-Aminomethyl)benzoyl]SCWQC[AEF][2Nal][αMeL]ER-NH2 (lactam N-10; linker 3-6 via CH2COCH2) [Compound 49]
- IC50 (pSTAT3): 20.3 nM

B7: Compound 50 (peptide)
peptide: [4‑(2-Aminoethyl)benzoyl]SCWQC[AEF][2Nal][αMeL]ER-NH2
modifications: lactam N-10; linker 3-6 via CH2COCH2
SMILES: CC(C)C[C@]1(C)NC(=O)[C@H](Cc2ccc3ccccc3c2)NC(=O)[C@H](Cc2ccc(OCCN)cc2)NC(=O)[C@@H]2CSCC(=O)CSC[C@H](NC(=O)[C@H](CO)NC(=O)c3ccc(cc3)CCNC(=O)CC[C@@H](C(=O)N[C@@H](CCCNC(=N)N)C(N)=O)NC1=O)C(=O)N[C@@H](Cc1c[nH]c3ccccc13)C(=O)N[C@@H](CCC(N)=O)C(=O)N2
- IC50 (pSTAT3): 51.1 nM

Binder: [3‑(4-Aminophenyl)propanoyl]SCWQC[AEF][2Nal][αMeL]ER-NH2 (lactam N-10; linker 3-6 via CH2COCH2) [Compound 51]
- IC50 (pSTAT3): 68.1 nM

B8: Compound 56 (peptide)
peptide: Ac-DEQCWQC[2Nal]W[αMeL]KR-NH2
modifications: lactam 2-11; linker 4-7 via CH2COCH2
SMILES: CC(=O)N[C@@H](CC(=O)O)C(=O)N[C@H]1CCC(=O)NCCCC[C@@H](C(=O)N[C@@H](CCCNC(=N)N)C(N)=O)NC(=O)[C@](C)(CC(C)C)NC(=O)[C@H](Cc2c[nH]c3ccccc23)NC(=O)[C@H](Cc2ccc3ccccc3c2)NC(=O)[C@@H]2CSCC(=O)CSC[C@H](NC(=O)[C@H](CCC(N)=O)NC1=O)C(=O)N[C@@H](Cc1c[nH]c3ccccc13)C(=O)N[C@@H](CCC(N)=O)C(=O)N2
- IC50 (pSTAT3): > 1 µM

Binder: Ac-DCQCWQC[2Nal]W[αMeL]CR-NH2 (linker 2-11, 4-7 via CH2COCH2) [Compound 62]
- IC50 (pSTAT3): > 1 µM

Binder: H-DCSEWQKWWLCR-NH2 (linker 2-11 via 1,3‑dibromopropan‑2‑one; lactam 4-7) [Compound 5]
- IC50 (pSTAT3): > 1 µM

Binder: Ac-DCQCWQCYW[αMeL]CR-NH2 (linker 2-11, 4-7 via CH2COCH2) [Compound 63]
- IC50 (pSTAT3): > 1 µM

Binder: [3Amb]SEWQ[Dab][AEF][2Nal][αMeL]ER-NH2 (lactam (positions not given here); lactam 3-6; not fully specified (bridges)) [Compound 67]
- IC50 (pSTAT3): 35.3 nM

B9: Compound 68 (peptide)
peptide: [3Amb]S[Orn]WQE[AEF][2Nal][αMeL]ER-NH2
modifications: lactam (positions not given here); lactam 3-6; not fully specified (bridges); printed as [(3-Aminomethyl)benzoyl](1c)*S[Orn](2c)WQE(2c)[Y(2-aminoethoxy)][2-Nal][2-Me-Leu]E(1c)R-[NH2]
- IC50 (pSTAT3): 63.9 nM

B10: Compound 69 (peptide)
peptide: [3Amb]SEWQ[Orn][AEF][2Nal][αMeL]ER-NH2
modifications: lactam (positions not given here); lactam 3-6; not fully specified (bridges); printed as [(3-Aminomethyl)benzoyl](1c)*SE(2c)WQ[Orn](2c)[Y(2-aminoethoxy)][2-Nal][2-Me-Leu]E(1c)R-[NH2]
- IC50 (pSTAT3): 41.1 nM

B11: Compound 70 (peptide)
peptide: [3Amb]SC[Trp(7-Me)]QC[AEF][2Nal][αMeL]ER-NH2
modifications: lactam (positions not given here); linker 3-6 via CH2COCH2; not fully specified (bridges)
- IC50 (pSTAT3): 8.43 nM

B12: Compound 79 (peptide)
peptide: [3Amb]SCWQC[AEF][2Nal][αMeL]ER[4Pal]-NH2
modifications: lactam (positions not given here); linker 3-6 via CH2COCH2; not fully specified (bridges); printed as [(3-Aminomethyl)benzoyl](1c)*SC(2a)WQC(2a)[Y(2-aminoethoxy)][2-Nal][2-Me-Leu]E(1c)R[3-(4-Pyridyl)-Ala]-[NH2]
- IC50 (pSTAT3): 21.3 nM

Binder: cyclo(DSCWQCWWLR) (linker 3-6 via 1,3‑dibromopropan‑2‑one) [Compound 6]
- IC50 (pSTAT3): > 1 µM
